The record followed here is paper PMC5024103, “Catalytic Thr or Ser Residue Modulates Structural Switches in 2-Cys Peroxiredoxin by Distinct Mechanisms” (Scientific Reports, 2016).

Changes are numbered by the printed parent chain. Names and notes keep the numbering of the source.

The target in series [1] is Tsa1^T44A (S. cerevisiae) (UniProt P34760). In words: SEC; analytical HPLC, Phenomenex BioSep-SEC-S3000, 50 uM enzyme, 100 mM Tris-HCl pH 7.4, 50 mM NaCl, 1 mL/min; samples reduced with 5 mM TCEP for 30 min at 25 C; dimers to decamer. In general terms: In gel filtration, larger molecules generally elute earlier.
The target in series [2] is Tsa1^T44S (S. cerevisiae) (UniProt P34760). The series is described as above.
The target is the same in series [3]. In words: SEC; analytical HPLC, Phenomenex BioSep-SEC-S3000, 50 uM enzyme, 100 mM Tris-HCl pH 7.4, 50 mM NaCl, 1 mL/min; samples reduced with TCEP and then oxidised (disulfide) with 1.2 molar equivalents of H2O2 for 30 min at 25 C; dimers to decamer.
For series [4], the target named is Tsa1^WT (typical 2-Cys peroxiredoxin Tsa1 from S. cerevisiae) (S. cerevisiae) (UniProt P34760). In words: SEC; analytical HPLC, Phenomenex BioSep-SEC-S3000, 50 uM enzyme, 100 mM Tris-HCl pH 7.4, 50 mM NaCl, 1 mL/min; samples reduced with 5 mM TCEP for 30 min at 25 C; dimers to decamer.
Series [5] concerns the molecule itself. The series is described as above.
Series [6] deals with the molecule itself. In words: SEC; analytical HPLC, Phenomenex BioSep-SEC-S3000, 50 uM enzyme, 100 mM Tris-HCl pH 7.4, 50 mM NaCl, 1 mL/min; samples reduced with TCEP and then oxidised (disulfide) with 1.2 molar equivalents of H2O2 for 30 min at 25 C; dimers to decamer.
Substrate in series [7]: CC(C)(OO)c1ccccc1
Kind of series: Trx system coupled assay, NADPH oxidation. It is filed as biochemical, Saccharomyces cerevisiae. The settings on record: Trx1 2 μM, TrxR1 0.3 μM, NADPH 150 μM, HEPES pH 7.4, 30 °C. From the text: Trx system coupled assay, NADPH oxidation on Tsa1 (Tsa1^WT) | In the case of cumene hydroperoxide (CHP) reduction, Tsa1^WT and Tsa1^T44S also presented similar enzymatic parameters

Substrate in series [8]: CC(C)(OO)c1ccccc1
Kind of series: Trx system coupled assay, NADPH oxidation. It is filed as biochemical, Saccharomyces cerevisiae. The settings on record: Trx1 2 μM, TrxR1 0.3 μM, NADPH 150 μM, HEPES pH 7.4, 30 °C. The source holds these as a separate data set.

Take “Tsa1^T44A (from UniProt P34760 1-196) (enzyme)”: the stoichiometry N in series [1] was found to be 10.

Regarding “Tsa1^T44S (from UniProt P34760 1-196) (enzyme)”, the stoichiometry N in series [2] and in series [3] was 10 in each case.

In series [4], “Tsa1^WT (typical 2-Cys peroxiredoxin Tsa1 from S. cerevisiae) (from UniProt P34760 1-196) (enzyme)” registered a stoichiometry N of 10.

B1: Tsa2^WT (typical 2-Cys peroxiredoxin Tsa2 from S. cerevisiae) (enzyme)
chain: MVAEVQKQAPPFKKTAVVDGIFEEISLEKYKGKYVVLAFVPLAFSFVCPTEIVAFSDAAKKFEDQGAQVLFASTDSEYSLLAWTNLPRKDGGLGPVKVPLLADKNHSLSRDYGVLIEKEGIALRGLFIIDPKGIIRHITINDLSVGRNVNEALRLVEGFQWTDKNGTVLPCNWTPGAATIKPDVKDSKEYFKNANN
notes: Tsa2, typical 2-Cys peroxiredoxin of Saccharomyces cerevisiae (86% identity with Tsa1; Ser45 in place of Thr44 of Tsa1); Decamer in both redox states by SEC; source: E. coli BL21 (DE3), pPROEx/tsa2, purified (IMAC on HisTrap, PD10 desalting); not shown: His tag (from the vector pPROEx); copies: 10
Turning to B1, the “stoichiometry N” value in series [5] and in series [6] was 10 throughout.

B2: Tsa1 (Tsa1^WT) (Saccharomyces cerevisiae S288C) (protein)
chain: MVAQVQKQAPTFKKTAVVDGVFDEVSLDKYKGKYVVLAFIPLAFTFVCPTEIIAFSEAAKKFEEQGAQVLFASTDSEYSLLAWTNIPRKEGGLGPINIPLLADTNHSLSRDYGVLIEEEGVALRGLFIIDPKGVIRHITINDLPVGRNVDEALRLVEAFQWTDKNGTVLPCNWTPGAATIKPTVEDSKEYFEAANK
notes: pET15b/Tsa1, His-tagged (HisTrap IMAC); homodimer ~48 kDa, decamer ~240 kDa
On to B2, for which, in series [7], the Km was 8.80 ± 0.05 µM, the catalytic constant (kcat) is 0.7 ± 0.1 s⁻¹ and the specificity constant (kcat/Km) amounted to 82000 ± 11000 M⁻¹ s⁻¹.

B3: Tsa1 (Tsa1^WT) (Saccharomyces cerevisiae S288C; T45S) (protein)
chain: B2 chain with T45S
notes: as for B2
As to B3, in series [7], the Km worked out at 9.9 ± 1.2 µM, the catalytic constant (kcat) is 0.7 ± 0.1 s⁻¹ and the kcat/Km stood at 75000 ± 9000 M⁻¹ s⁻¹.

B4: Tsa1^S78D (enzyme)
chain: B2 chain with S79D
As for B4, the “stoichiometry N” value in series [5] and in series [6] was 2 in each case.

B5: Tsa1^T44V (enzyme)
chain: B2 chain with T45V
For B5, the “stoichiometry N” value in series [6] was determined as 2.

B6: Tsa1 (Tsa1^WT) (Saccharomyces cerevisiae S288C; T45A) (protein)
chain: B2 chain with T45A
notes: as for B2
Take B6: the Km in series [8] was 300 µM.

B7: Tsa1^Y77A (enzyme)
chain: B2 chain with Y78A
In the case of B7, the “stoichiometry N” value in series [5] and in series [6] was 2 throughout.

Broadly, the stoichiometry N is the number of molecules, sites or subunits per partner or assembly. As a reminder, the Km is the concentration of substrate that gives half-maximal velocity. The term kcat denotes the number of substrate molecules converted per active site and unit of time at saturation. The kcat/Km is the second-order rate constant that governs catalysis at low substrate concentration.
